Measured values as given in paper PMC8130932 (PLoS Pathogens, 2021).

How the values were obtained:
[1] = molecular target: T1, SARS-CoV-2 spike glycoprotein S1+S2 extracellular domain (SARS-CoV-2, reference sequence, UniProt P0DTC2); experiment: ELISA
T1 construct: also called full-length spike glycoprotein ectodomain

[2] = molecular target: T2, SARS-CoV-2 spike glycoprotein, full-length, prefusion-stabilised, on MDCK-SIAT1 cells (SARS-CoV-2, reference sequence, UniProt P0DTC2, 986KV987 to 986PP987 | 682RRAR685 to 682GSAG685); experiment: flow cytometry on cells; settings: one partner purified
T2 construct: also called MDCK-Spike

B1: FD 8B (antibody, V domains shown)
VH: EVQLLESGAEVKKPGASVKVSCKVSGYTLTELSMHWVRQAPGKGLEWMGGFDPEDGETIYAQKFQGRVTMTEDTSTDTAYMELSSLRSEDTAVYYCATAAAINCSSTSCYYYYYYYGMDVWGQGTTVTVSS
VL: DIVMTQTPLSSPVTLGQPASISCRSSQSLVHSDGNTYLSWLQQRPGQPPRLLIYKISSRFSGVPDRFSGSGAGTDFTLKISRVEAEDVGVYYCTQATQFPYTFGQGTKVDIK
notes: source: HEK293T, transfected; culture supernatant or purified
OD450 [1]: 1.1 OD450

B2: EW 9C (antibody, V domains shown)
VH: EVQLVESGGGVVQPGASLRLSCVASGFTFNNFGFHWVRQAPGKGLEWLAVISYEGSKTYYAESLKGRFTISRDTSKNTVYLQMNSLRAEDTAVYYCARATSIFWFGEGRNWFDPWGQGTMVTVSS
VL: EIVLTQSPGTVSLSAGERATLSCRASQNVGTDLAWYVQRPGQAPRLLIYDTSNKATGIPARFSGRGSGTDFTLTIDSLEPEDFAVYYCQQRSNWPLTFGGGTKVEIR
notes: as for B1
binding result [2]: binds | OD450 [1]: 1.22 OD450

B3: FB 1E (antibody, V domains shown)
VH: EVQLVESGAEVKKPGESLKISCQGSGYRFNSYWIAWVRQMPGKGLEWMGSIFPTDSDIRYNPSFQGQVTISADKSISIAYLQWSSLKASDTAIYYCARHWASMVRGVIRASHYYGMDVWGQGTTVTVSS
VL: QSVLTQPPSASGSPGQSVTISCSGASSDIGDYNYVSWYQQLPGKAPKLLIYEVTKRPSGVPDRFSGSKSGNTASLTVSGLQADDEADYYCSSYAFGGSDIRVFGGGTKLAVL
notes: as for B1
binding result [2]: binds | OD450 [1]: 1.4 OD450

B4: FN 12A (antibody, V domains shown)
VH: QVQLVQSGAEVKKPGSSVKVSCKASGGTFSSYAISWVRQAPGQGLEWMGRIIPILGIANYAQKFQGRVTITADKSTSTAYMELSSLRSEDTAVYYCARSGCSSTSCPSNLYYYYYGMDVWGQGTTVTVSS
VL: QSVLTQPPSVSAAPGQKVTISCSGSSSNIGNNYVSWYQQLPGTAPKLLIYDNNKRPSGIPDRFSGSKSGTSATLGITGLQTGDEADYYCGTWDSSLSALVFGGGTKLTVL
notes: as for B1
OD450 [1]: 2.24 OD450

B5: FD 7C (antibody, V domains shown)
VH: QLQLQESGPGLVKPSETLSLTCTVSGGSISSYYWSWIRQPPGKGLEWIGYIYYSGSTNYNPSLKSRVTISVDTSKNQFSLKLSSVTAADTAVYYCARDYRFGELFGRFAWFDPWGQGTLVTVSS
VL: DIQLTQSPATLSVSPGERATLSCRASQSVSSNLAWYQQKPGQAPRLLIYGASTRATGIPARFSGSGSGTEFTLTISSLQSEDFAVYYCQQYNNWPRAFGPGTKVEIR
notes: as for B1
binding result [2]: binds | OD450 [1]: 1.9 OD450

B6: FJ 4E (antibody, V domains shown)
VH: QVQLVESGPGLVKPSETLSLTCSVSGGSISSGTYYWSWIRQQPGKGLEWIGYIYNTGRPYYNPFLKSRITISVDSSKNQFSLKLTSVTAADTAVYYCARDEYDSSDSGIQGHWFDPWGQGTLVTVSS
VL: AIRMTQSPSSLSASVGDRVTITCRTSQNINSFLNWYQQKPGKGPNLLIYGAFTLQSGVPSRFSGSGSGTDFTLTISSLQPEDFATYFCQQSYSTPWTFGQGTKVEIK
notes: as for B1
OD450 [1]: 0.26 OD450

B7: FD 7D (antibody, V domains shown)
VH: EVQLVESGAEVKKPGESLRISCKGSGYSFTSYWISWVRQMPGKGLEWMGRIDPSDSYTNYSPSFQGHVTISADKSISTAYLQWSSLKASDTAMYYCARHSDCSSTSCYFVDAFDIWGQGTMVTVSS
VL: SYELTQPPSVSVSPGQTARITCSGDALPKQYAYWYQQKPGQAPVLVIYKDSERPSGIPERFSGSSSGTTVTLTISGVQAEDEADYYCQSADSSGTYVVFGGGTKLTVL
notes: as for B1
OD450 [1]: 1.44 OD450

B8: FI 1C (antibody, V domains shown)
VH: EVQLVESGGGLVKPGGSLRLSCAASGFTFSDYYMSWIRQAPGKGLEWVSYISSSGSTIYYADSVKGRFTISRDNAKNSLYLQMNSLRAEDTAVYYCARRSNRFLIAFDIWGQGTMVTVSS
VL: QSALTQPASVSGSPGQTITISCTGTSSDVGGYNYVSWYQQHPGKAPKLMIYEVSNRPSGVSNRFSGSKSGNTASLTISGLQAEDEADYYCSSYTSSSTLVVFGGGTKLTVP
notes: as for B1
binding result [2]: binds | OD450 [1]: 1.88 OD450

B9: FD 10A (antibody, V domains shown)
VH: EVQLVESGGGLVQPGGSLRLSCAASGFTFSSYWMHWVRQAPGKGLVWVSRINSDGSSTSYADSVKGRFTISRDNAKNTLYLQMNSLRAEDTAVYYCANMAFDIWGQGTMVTVSS
VL: not shown
notes: as for B1
OD450 [1]: 1.78 OD450

B10: FD 11C (antibody, V domains shown)
VH: EVQLLESGPGLVKPSETLSLTCTVSGGSISSSSYYWGWIRQPPGKGLEWIGSIYYSGSTYYNPSLKSRVTISVDTSKNQFSLKLSSVTAADTAVYYCAREYYYGSETKKYYYYYGMDVWGQGTTVTVSS
VL: not shown
notes: as for B1
binding result [2]: binds | OD450 [1]: 1.2 OD450

B11: FJ 10B (antibody, V domains shown)
VH: QVQLVQSGAEVKKPGESLRISCKGSGYSFTSYWISWVRQMPGKGLEWMGRIDPSDSYTNYSPSFQGHVTISADKSISTAYLQWSSLKASDTAMYYCARLDPRYGPDYYGMDVWGQGTTVTVSS
VL: AIRMTQSPSSLSASVGDRVTITCRASQSISSYLNWYQQKPGKAPKLLIHAASSLQSGVPSRFSGSGSGTDFTLTMSSLQPEDFATYYCQQSYSTPLTFGGGTKVEIR
notes: as for B1
OD450 [1]: 1.48 OD450

B12: FJ 1C (antibody, V domains shown)
VH: QVQLQESGPGLVKPSETLSLTCTVSGYSISSGYYWGWIRQPPGKGLEWIGSIYHSGSTYYNPSLKSRVTISVDTSKNQFSLKLSSVTAADTAVYYCARDKALLWFGELFTNLFDYWGQGTLVTVSS
VL: QSALTQPASVSGSPGQSITISCTGTSSDVGGYNYVSWYQQHPGKAPKLMIYEVSNRPSGVSNRFSGSKSGNTASLTISGLQAEDEANYYCSSYTSSSTLVFGGGTKLTVL
notes: as for B1
OD450 [1]: 1.61 OD450

B13: FD 5E (antibody, V domains shown)
VH: EVQLVESGGVVVQPGGSLRLSCAASGFTFDDYAMHWVRQAPGKGLEWVSLISWDGGSTYYADSVKGRFTISRDNSKNSLYLQMNSLRAEDTALYYCAKDSVRFRYYYGMDVWGQGTTVTVSS
VL: EIVLTQSPATLSLSPGERATLSCRASQSVSSYLAWYQQKPGQAPRLLIYDASNRATGIPARFSGSGSGTDFTLTISSLEPEDFAVYYCQQRSNWPLTFGPGTKVDIK
notes: as for B1
binding result [2]: binds | OD450 [1]: 0.34 OD450

B14: EW 9B (antibody, V domains shown)
VH: EVQLVQSGAEVKKPGASVKVSCKASGYTFTSYYMHWVRQAPGQGLEWMGIINPSGGSTSYAQKFQGRVTMTRDTSTSTVYMELSSLRSEDTAVYYCAREDGVVPAANLMISLEDYYYYGMDVWGQGTTVTVSS
VL: EIVLTQSPATLSLSPGERATLSCRASQSVSSYLAWYQQKPGQAPRLLIYDASNRATGIPARFSGSGSGTDFTLTISSLEPEDFAVYYCQQRSNWPLTFGGGTKVDIK
notes: as for B1
OD450 [1]: 0.22 OD450

B15: FD 1D (antibody, V domains shown)
VH: EVQLVESGGGVVQPGRSLRLSCAASGFTFSSYAMHWVRQAPGKGLEWVAVISYDGSNKYYADSVKGRFTISRDNSKNTLYLQMNSLRAEDTAVYYCARAGSGSYLNWFDPWGQGTLVTVSS
VL: EIVLTQSPATLSLSPGERATLSCRASQSVSSYLAWYQQKPGQAPRLLIYDASNRATGIPARFSGSGSGTDFTLTISSLEPEDFAVYYCQQRSNWPITFGQGTRLEIK
notes: as for B1
OD450 [1]: 0.4 OD450

B16: FD 11E (antibody, V domains shown)
VH: EVQLVESGGGLVKPGGSLRLSCAASGFTFSSYSMNWVRQAPGKGLEWVSSISSSSSYIYYADSVKGRFTISRDNAKNSLYLQMNSLRAEDTAVYYCASLAAAGPETYYYYGMDVWGQGTMVTVSS
VL: not shown
notes: as for B1
binding result [2]: binds | OD450 [1]: 1.45 OD450

B17: FD 1E (antibody, V domains shown)
VH: EVQLLESGGGLVKPGGSLRLSCAASGFTFSSYSMNWVRQAPGKGLEWVSSISSSSSYIYYADSVKGRFTISRDNAKNSLYLQMNSLRAEDTAVYYCASLAAAGPETYYYYGMDVWGQGTMVTVSS
VL: not shown
notes: as for B1
binding result [2]: binds | OD450 [1]: 1.45 OD450

B18: FD 11A (antibody, V domains shown)
VH: EVQLVESGGGVVQPGRSLRLSCAASGFTFSSYGMHWVRQAPGKGLEWVAVIWYDGSNKYYADSVKGRFTISRDNSKNTLYLQMNSLRAEDTAVYYCAKGPDILTGYYNYYYYGMDVWGQGTMVTVSS
VL: QSVLTQPPSVSGAPGQRVTISCTGSSSNIGAGYDVHWYQQLPGTAPKLLIYGNSNRPSGVPDRFSGSKSGTSASLAITGLQAEDEADYYCQSYDSSLSGFYVVFGGGTKLTVL
notes: as for B1
binding result [2]: binds | OD450 [1]: 1.64 OD450

B19: FD 5D (antibody, V domains shown)
VH: EVQLVESGGGLVQPGGSLRLSCAASGFTFSSYSMNWVRQAPGKGLEWVSYISSSSSTIYYADPVKGRFTISRDNAKNSLYLQMNSLRAEDTAVYYCASPGGITAAGTSVLFGYYGMDVWGQGTMVTVSS
VL: not shown
notes: as for B1
OD450 [1]: 1.83 OD450

B20: FG 12C (antibody, V domains shown)
VH: EVQLVESGGGLVQPGRSLRLSCAASGFTFDDYAMHWVRQAPGKGLEWVSGISWNSGSIGYADSVKGRFTISRDNAKNSLYLQMNSLRAEDTALYYCAKDMRVHDYGDYYFDYWGQGTLVTVSS
VL: SYELTQPPSVSVAPGKTARITCGGNNIGSKSVHWYQQKPGQAPVLVIYYDSDRPSGIPERFSGSNSGNTATLTISRVEAGDEADYYCQVWDSSSDHPVFGGGTKLTVL
notes: as for B1
OD450 [1]: 1.74 OD450

B21: FN 8C (antibody, V domains shown)
VH: QVQLVESGGGVVQPGRSLRLSCAASGFTFSSYGMHWVRQAPGKGLEWVAVISYDGSNKYYADTVKGRFTISRDNSKNTLYLQMNSLRAEDTAVYYCARERTYYDILTGYRHYYGMDVWGQGTTVTVSS
VL: SYELTQPPSVSVAPGQTARITCGGNNIGSKSVHWYQQKPGQAPVLVVYDDSDRPSGIPERFSGSNSGNTATLTISRVEAGDEADYYCQVWDSSSDHWVFGGGTKLTVL
notes: as for B1
OD450 [1]: 0.54 OD450

B22: FM 1A (antibody, V domains shown)
VH: EVQLLESGGGVVQPGRSLRLSCAASGFTFSSYGMHWVRQAPGKGLEWVAVIWYDGSNKYYADSVKGRFTISRDNSKNTLYLQMNSLRAEDTAVYYCAREGAVGATRGFDYWGQGTLVTVSS
VL: SYELTQPPSVSVAPGQTARITCGGNNIGSKSVHWYQQKPGQAPVLVVYDDSDRPSGIPERFSGSNSGNTATLTISRVEAGDEADYYCQVWDSSSDQGVFGGGTKLTVL
notes: as for B1
OD450 [1]: 0.25 OD450

B23: FI 3A (antibody, V domains shown)
VH: EVQLLESGGGLIQPGGSLRLSCAASGFTVSSNYMSWVRQAPGKGLEWVSVIYSGGSTYYADSVKGRFTISRDNSKNTLYLQMNSLRAEDTAVYYCARDHVRPGMNIWGQGTMVTVSS
VL: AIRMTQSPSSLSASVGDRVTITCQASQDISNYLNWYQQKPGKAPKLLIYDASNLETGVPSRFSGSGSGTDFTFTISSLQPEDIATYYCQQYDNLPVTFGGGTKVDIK
notes: as for B1
binding result [2]: binds | OD450 [1]: 1.6 OD450
